Measurements taken from PMC10691782 (Cellular immunology, 2022).
Blank lines part the entries; values can stand above or below the molecule they belong to.

Assays:
[1] = target: BAFF in human plasma (human (endogenous in plasma)); assay: SEC
[2] = target: BAFF 60-mer:mBaffR-Fc complex (human | murine, UniProt Q9Y275-1 134-285; Q9D8D0 1-71); assay: ELISA
[3] = target: Recombinant BAFF 60-mer (histidine-tagged BAFF amino acid 134-285) (human, UniProt Q9Y275-1 134-285); assay: SPR
[4] = target: Recombinant BAFF 3-mer (Flag-tagged BAFF amino acid 134-285) (human, UniProt Q9Y275-1 134-285); assay: SPR

Molecule: BAFF in human plasma (natural protein)
stoichiometry N [1]: 3

binding result [2]: binds
B1: Murine TACI-Fc (Fc fusion, UniProt Q9ET35 1-128, looked up)
chain: MAMAFCPKDQYWDSSRKSCVSCALTCSQRSQRTCTDFCKFINCRKEQGRYYDHLLGACVSCDSTCTQHPQQCAHFCEKRPRSQANLQPELGRPQAGEVEVRSDNSGRHQGSEHGPGLRLSSDQLTLYC
modifications: biotin (EZ-Link Sulfo-NHS-Biotin), in the ELISA only

binding result [2]: binds
B2: Murine BCMA-Fc (Fc fusion, UniProt O88472 1-49, looked up)
chain: MAQQCFHSEYFDSLLHACKPCHLRCSNPPATCQPYCDPSVTSSVKGTYT
modifications: not fully specified; biotin (EZ-Link Sulfo-NHS-Biotin), in the ELISA only

binding result [3]: binds
binding result [4]: binds
B3: mBaffR-Fc (murine BR3 ecto-domain fused to murine IgG1 Fc fragment) (Fc fusion, UniProt Q9D8D0 1-71, looked up)
chain: MGARRLRVRSQRSRDSSVPTQCNQTECFDPLVRNCVSCELFHTPDTGHTSSLEPGTALQPQEGSALRPDVA
